The text below walks through data of the supplement of paper PMC10724198.

± gives the standard deviation of the averaged measurements.
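Further: PSI is a weighted mean of sequencing reads over stability bins, variants kept only with over 10 reads, mCherry proximal and sfGFP distal, peptide attached via GGGS linker.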

The data set relates to Saccharomyces cerevisiae. Briefly: protein stability index of tFT-peptide fusion (C-terminal peptide) (PSI (0-1 scale)); higher = more stable (slower turnover). The conditions noted are these: genetic background: wild type; temperature: 30 C.
Regarding PSWLPLPLLFLV, the protein stability index was 0.416 ± 0.18. The value for PSYTSYFVGLST was 0.48 ± 0.11; that for PTDVVCVSGHGS was 0.748 ± 0.076; that for PTFPPPPRTPPS was 0.719 ± 0.017. In turn, PTFRSRPFPPHP had a protein stability index of 0.703 ± 0.032.

PTGCPPGVTPCL came in with a protein stability index of 0.681 ± 0.022. The sequence PTLGDPSVLLLL registered a protein stability index of 0.69 ± 0.022. PTLSPSPLAPLS returned a protein stability index of 0.6635 ± 0.0018.

Sequence PTNQHNLEQRPE returned a protein stability index of 0.667 ± 0.05. Sequence PTPLSPRNTILR yielded a protein stability index of 0.726 ± 0.1. Under PTPPLPLPRPLP stands 0.688 ± 0.037.

PTPPNSPRPPTP registered a protein stability index of 0.63 ± 0.12.

In the case of PTPPPLLTRPLP, the protein stability index was determined as 0.709 ± 0.11.

In the case of PTSLPAPPRLPF, the protein stability index stood at 0.713 ± 0.023. The value for PTSPPPPLPPPS was 0.7066 ± 0.0036. PTVLCTGKCLRS had a protein stability index of 0.635 ± 0.044. Sequence PVAGSAGVRNLP showed a protein stability index of 0.671 ± 0.012. PVAGTLDVHYRV displayed a protein stability index of 0.7098 ± 0.0063. PVAPKPTGAKTP: the protein stability index is 0.661 ± 0.06. Under PVCDPCSKATLL stands 0.687 ± 0.015; under PVDAAPCSPSGL, 0.663 ± 0.041.

For PVDPPEDLNTRS, the protein stability index was 0.7098 ± 0.0064. Under PVFSHTDSRYRP stands 0.681 ± 0.09.

Sequence PVGFPLPCPFFT had a protein stability index of 0.688 ± 0.035. The value for PVKTHPPPPPLP was 0.724 ± 0.024; that for PVLELTLILRRS was 0.6304 ± 0.0023; that for PVLLLLSLPRPL was 0.667 ± 0.014. The value for PVLLVWDLPAVL was 0.714 ± 0.086.

PVPADGPSPPQP: the protein stability index is 0.721 ± 0.035. Sequence PVPDDVTVLLSR registered a protein stability index of 0.804 ± 0.12.

Consider PVPLEAPSPPPP, for which the protein stability index amounted to 0.671 ± 0.022.

In turn, PVPLPSSSPSPY showed a protein stability index of 0.663 ± 0.046. The value for PVPLTPRCPSVT was 0.6 ± 0.019; that for PVPLVLSFLCDL was 0.686 ± 0.03; that for PVPPAPASPPTG was 0.742 ± 0.06. Under PVPPLPPRPPPL stands 0.619 ± 0.11. PVPPLRRFPPLF: the protein stability index came out at 0.648 ± 0.036. Under PVPPSARHSSPP stands 0.66 ± 0.021; under PVPVFLLLFFSP, 0.496 ± 0.052.

PVSPLPGPPPPP returned a protein stability index of 0.7681 ± 0.0053.

As to PVSPPLSLASPS, the protein stability index turned out to be 0.706 ± 0.047. In turn, PVSRSVHIEDKR displayed a protein stability index of 0.727 ± 0.052.

In turn, PVVLGVGMEGIS displayed a protein stability index of 0.7137 ± 0.0068. The value for PVWVDRGVLWSV was 0.716 ± 0.094. As to PWFGSSPRLAAC, the protein stability index was determined as 0.7346 ± 0.0073. Under PWGGMNWGGLSV stands 0.745 ± 0.073; under PWKDPSLLLHRS, 0.743 ± 0.061. Turning to PWPFKQHEHRRA, the protein stability index amounted to 0.847 ± 0.015.

As to PYIKDRYSPANN, the protein stability index stood at 0.781 ± 0.062.

As for PYLLPPFLPSPP, the protein stability index was determined as 0.732 ± 0.029. Regarding PYSPPYSLTSLS, the protein stability index was 0.708 ± 0.075. The value for PYVAFMLPSPWQ was 0.672 ± 0.033; that for QAHRHASPKTRT was 0.654 ± 0.032; that for QAVQTLTAETKH was 0.63 ± 0.051. Turning to QAVVGRVRLRGE, the protein stability index came to 0.6775 ± 0.0017. Under QCFRYSVFVGRG stands 0.63 ± 0.019; under QCIRLFCPLVSL, 0.587 ± 0.014. The sequence QDTRRRAPYPPS gave a protein stability index of 0.673 ± 0.051.

For the sequence QEPDARYGPGRT, the protein stability index worked out at 0.692 ± 0.12. QESGPEAGIPPL displayed a protein stability index of 0.7222 ± 0.003.

As to QFTSGCPAYLLK, the protein stability index worked out at 0.678 ± 0.0079. The value for QGEARRPPSPGR was 0.638 ± 0.19; that for QGGCAATRARGS was 0.631 ± 0.0033; that for QGLSHVVTCLFG was 0.721 ± 0.07.

As for QGRLRLSLLVSG, the protein stability index came out at 0.526 ± 0.0048. Under QGRYPLNVLIRI stands 0.57 ± 0.057; under QGTHRGSGGVTE, 0.716 ± 0.023. The value for QGVPNEPLWARP was 0.72 ± 0.027; that for QHTHNRLRAAQD was 0.678 ± 0.029.

The sequence QIKPSLGLDKPS had a protein stability index of 0.683 ± 0.061.

In turn, QIQKINTKSKKN registered a protein stability index of 0.699 ± 0.021. The value for QIRRPRRFFYVS was 0.642 ± 0.17; that for QIVDHCLVWLRG was 0.628 ± 0.0066; that for QKISEKNISEKN was 0.7063 ± 0.0013. The value for QKKKIRKKKKTT was 0.685 ± 0.0074; that for QKKKKKIKEHSK was 0.626 ± 0.031. Under QKKRKKPGKWKS stands 0.662 ± 0.022; under QKQQRIKQTAKK, 0.703 ± 0.048; under QKRIALNSQKNT, 0.688 ± 0.048.

Take QKRKKQNKDGGT: the protein stability index was determined as 0.716 ± 0.042.
